From publication PMC10873595, “Filament structure and subcellular organization of the bacterial intermediate filament–like protein crescentin” (Proceedings of the National Academy of Sciences of the …, 2024)
Read-outs that look alike come from different tables or passages of the source. Blank lines part the entries; values can stand above or below the binder they belong to.

Tests used:
[1] = molecular target: T1, CreS-His (full-length CreS followed by GSHHHHHH) (Caulobacter crescentus (vibrioides) …); assay: far-Western, overlay or dot blot; cleared lysates of E. coli C41 (DE3) expressing CreS-His variants resolved by SDS-PAGE, blotted, probed with NB13 (7 µg/mL) then α-HA-peroxidase; settings: one partner purified
T1 construct: crescentin (CreS), Caulobacter crescentus (vibrioides), residues 1-457; also called pFE127 product; source: E. coli C41 (DE3), in cleared lysate; also purified (HisTrap, size exclusion chromatography)
T1 chain: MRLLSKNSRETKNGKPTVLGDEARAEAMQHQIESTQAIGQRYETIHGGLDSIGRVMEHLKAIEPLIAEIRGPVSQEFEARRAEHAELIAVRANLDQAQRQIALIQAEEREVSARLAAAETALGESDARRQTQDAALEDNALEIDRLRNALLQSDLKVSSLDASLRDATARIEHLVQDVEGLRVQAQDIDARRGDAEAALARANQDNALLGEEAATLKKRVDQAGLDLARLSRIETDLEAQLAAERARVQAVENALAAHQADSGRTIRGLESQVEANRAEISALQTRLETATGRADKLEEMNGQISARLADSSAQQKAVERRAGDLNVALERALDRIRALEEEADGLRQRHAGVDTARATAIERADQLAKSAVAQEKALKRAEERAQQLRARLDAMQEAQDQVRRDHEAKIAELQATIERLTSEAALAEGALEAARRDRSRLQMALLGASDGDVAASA

[2] = molecular target: T1, CreS-His (full-length CreS followed by …)

binding result [1]: binds
B1: nanobody 13 (NB13) (VHH)
VHH: QVQLQESGGGLVQTGGSLRLSCASSRSIDGINIMRWYRQAPGKQRGMVAVVTGWGSTNYVDSVKGRFIISRDSAKDTVYLQMNNLKPEDTAVYSCNAIYRGSEYWGQGTQVTVSS
notes: camelid nanobody raised against purified CreSwt; also called CreS-specific nanobody; clone No. 13; source: E. coli WK6, periplasmic extract, purified (HisTrap); not shown: HA, C-terminal, kept

binding result [2]: binds
B2: Megabody MB13 (NB13, YgjK) (VHH)
VHH: AHNTESGEMLFTVKKDSLRLSCASSRSIDGINIMRWYRQAPGKQRGMVAVVTGWGSTNYVDSVKGRFIISRDSAKDTVYLQMNNLKPEDTAVYSCNAIYRGSEYWGQGTQVTVSS
